The target in data set [1] is T1, MBP-OsWRKY76 (Oryza sativa (rice), UniProt Q6EPZ2 1-327).
T1 sequence: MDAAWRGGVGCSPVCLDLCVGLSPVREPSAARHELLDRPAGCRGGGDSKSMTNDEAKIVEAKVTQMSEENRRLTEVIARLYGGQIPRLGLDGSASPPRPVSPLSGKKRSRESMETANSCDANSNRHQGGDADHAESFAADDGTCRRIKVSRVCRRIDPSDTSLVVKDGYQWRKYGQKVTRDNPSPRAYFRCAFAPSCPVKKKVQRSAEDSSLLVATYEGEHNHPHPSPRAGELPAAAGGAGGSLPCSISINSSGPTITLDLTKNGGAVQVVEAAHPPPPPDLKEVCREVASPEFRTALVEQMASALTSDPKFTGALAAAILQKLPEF
Kind of data set: EMSA; DIG Gel Shift Kit 2nd generation (Roche); buffer, salt, pH and temperature not stated. The note with it: protein: recombinant; tags: MBP (N-terminal, pMALc2x); label: DIG. (Mobility shift assays separate free from complexed probe on a gel.)

Data set [2] addresses T1, MBP-OsWRKY76. Kind of data set: competition; excess unlabelled mWB vs DIG-WB; DIG Gel Shift Kit 2nd generation (Roche); buffer, salt, pH and temperature not stated. Conditions: protein: recombinant; tags: MBP (N-terminal, pMALc2x).
In data set [3] the target is T1, MBP-OsWRKY76. Put plainly: competition; excess unlabelled WB vs DIG-WB; DIG Gel Shift Kit 2nd generation (Roche); buffer, salt, pH and temperature not stated. Conditions: protein: recombinant; tags: MBP (N-terminal, pMALc2x).

B1: WB (W-box probe) (dsDNA)
DNA 1: AACTTTGACCAATCTTTCAAGTA
DNA 2: TACTTGAAAGATTGGTCAAAGTT
Consider B1, for which the binding result with MBP-OsWRKY76 [1] is recorded as “binds”.

B2: mWB unlabelled competitor (dsDNA)
DNA 1: AACTTTGAACAATCTTTCAAGTA
DNA 2: TACTTGAAAGATTGTTCAAAGTT
Turning to B2, the binding result with MBP-OsWRKY76 [2] was “no binding”.

B3: mWB (mutated W-box probe) (dsDNA)
DNA 1: AACTTTGAACAATCTTTCAAGTA
DNA 2: TACTTGAAAGATTGTTCAAAGTT
In the case of B3, the binding result with MBP-OsWRKY76 [1] is listed as “no binding”.

B4: WB unlabelled competitor (dsDNA)
DNA 1: AACTTTGACCAATCTTTCAAGTA
DNA 2: TACTTGAAAGATTGGTCAAAGTT
On to B4, for which, in the data set with MBP-OsWRKY76 [3], the binding result is “binds”.

These data come from article PMC3830488, “WRKY76 is a rice transcriptional repressor playing opposite roles in blast disease resistance and cold stress tolerance”.
